Earlier results in article PMC4664810.
Where two headings read alike, the source gives them in different places.

Columns and labels:
[1] = target: CD20 (Homo sapiens) (UniProt P11836)
[2] = target: CD20 (Homo sapiens) (UniProt P11836); remark: listed apart in the source

Chain of CD20 (Homo sapiens) (P11836 whole entry): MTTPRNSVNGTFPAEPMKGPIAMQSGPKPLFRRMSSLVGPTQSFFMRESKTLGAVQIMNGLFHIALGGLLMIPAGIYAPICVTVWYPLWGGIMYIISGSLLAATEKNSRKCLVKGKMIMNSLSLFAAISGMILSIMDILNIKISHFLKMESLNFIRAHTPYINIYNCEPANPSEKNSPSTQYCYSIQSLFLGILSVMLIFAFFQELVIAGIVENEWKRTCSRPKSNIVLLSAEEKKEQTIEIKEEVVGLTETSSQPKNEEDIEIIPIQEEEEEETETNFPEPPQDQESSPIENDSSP

| Substance | Kd [1] [nM] | Kd [2] [nM] |
| --- | --- | --- |
| ofatumumab | 4.76 | – |
| rituximab | – | 5.45 |
